The values that follow come from IntAct's records for PubMed 31515488.

B1: Vasculin (Homo sapiens), Q86WP2 (parent)
chain: MAQHDFAPAWLNFPTPPSSTKSSLNFEKHSENFAWTENRYDVNRRRHNSSDGFDSAIGRPNGGNFGRKEKNGWRTHGRNGTENINHRGGYHGGSSRSRSSIFHAGKSQGLHENNIPDNETGRKEDKRERKQFEAEDFPSLNPEYEREPNHNKSLAAGVWEYPPNPKSRAPRMLVIKKGNTKDLQLSGFPVVGNLPSQPVKNGTGPSVYKGLVPKPAAPPTKPTQWKSQTKENKVGTSFPHESTFGVGNFNAFKSTAKNFSPSTNSVKECNRSNSSSPVDKLNQQPRLTKLTRMRTDKKSEFLKALKRDRVEEEHEDESRAGSEKDDDSFNLHNSNSTHQERDINRNFDENEIPQENGNASVISQQIIRSSTFPQTDVLSSSLEAEHRLLKEMGWQEDSENDETCAPLTEDEMREFQVISEQLQKNGLRKNGILKNGLICDFKFGPWKNSTFKPTTENDDTETSSSDTSDDDDV
partner: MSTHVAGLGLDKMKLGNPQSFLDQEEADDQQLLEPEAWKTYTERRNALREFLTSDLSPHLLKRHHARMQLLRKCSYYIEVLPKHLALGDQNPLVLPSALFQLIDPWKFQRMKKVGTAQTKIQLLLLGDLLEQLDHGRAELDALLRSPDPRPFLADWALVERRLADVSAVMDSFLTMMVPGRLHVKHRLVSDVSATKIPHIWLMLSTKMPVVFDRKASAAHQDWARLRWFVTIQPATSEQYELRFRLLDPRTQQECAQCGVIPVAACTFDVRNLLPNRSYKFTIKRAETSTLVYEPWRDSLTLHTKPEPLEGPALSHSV
B2: Hypoxia-inducible factor 1-alpha inhibitor (Homo sapiens), Q9NWT6 (parent)
chain: MAATAAEAVASGSGEPREEAGALGPAWDESQLRSYSFPTRPIPRLSQSDPRAEELIENEEPVVLTDTNLVYPALKWDLEYLQENIGNGDFSVYSASTHKFLYYDEKKMANFQNFKPRSNREEMKFHEFVEKLQDIQQRGGEERLYLQQTLNDTVGRKIVMDFLGFNWNWINKQQGKRGWGQLTSNLLLIGMEGNVTPAHYDEQQNFFAQIKGYKRCILFPPDQFECLYPYPVHHPCDRQSQVDFDNPDYERFPNFQNVVGYETVVGPGDVLYIPMYWWHHIESLLNGGITITVNFWYKGAPTPKRIEYPLKAHQKVAIMRNIEKMLGEALGNPQEVGPLLNTMIKGRYN
partner: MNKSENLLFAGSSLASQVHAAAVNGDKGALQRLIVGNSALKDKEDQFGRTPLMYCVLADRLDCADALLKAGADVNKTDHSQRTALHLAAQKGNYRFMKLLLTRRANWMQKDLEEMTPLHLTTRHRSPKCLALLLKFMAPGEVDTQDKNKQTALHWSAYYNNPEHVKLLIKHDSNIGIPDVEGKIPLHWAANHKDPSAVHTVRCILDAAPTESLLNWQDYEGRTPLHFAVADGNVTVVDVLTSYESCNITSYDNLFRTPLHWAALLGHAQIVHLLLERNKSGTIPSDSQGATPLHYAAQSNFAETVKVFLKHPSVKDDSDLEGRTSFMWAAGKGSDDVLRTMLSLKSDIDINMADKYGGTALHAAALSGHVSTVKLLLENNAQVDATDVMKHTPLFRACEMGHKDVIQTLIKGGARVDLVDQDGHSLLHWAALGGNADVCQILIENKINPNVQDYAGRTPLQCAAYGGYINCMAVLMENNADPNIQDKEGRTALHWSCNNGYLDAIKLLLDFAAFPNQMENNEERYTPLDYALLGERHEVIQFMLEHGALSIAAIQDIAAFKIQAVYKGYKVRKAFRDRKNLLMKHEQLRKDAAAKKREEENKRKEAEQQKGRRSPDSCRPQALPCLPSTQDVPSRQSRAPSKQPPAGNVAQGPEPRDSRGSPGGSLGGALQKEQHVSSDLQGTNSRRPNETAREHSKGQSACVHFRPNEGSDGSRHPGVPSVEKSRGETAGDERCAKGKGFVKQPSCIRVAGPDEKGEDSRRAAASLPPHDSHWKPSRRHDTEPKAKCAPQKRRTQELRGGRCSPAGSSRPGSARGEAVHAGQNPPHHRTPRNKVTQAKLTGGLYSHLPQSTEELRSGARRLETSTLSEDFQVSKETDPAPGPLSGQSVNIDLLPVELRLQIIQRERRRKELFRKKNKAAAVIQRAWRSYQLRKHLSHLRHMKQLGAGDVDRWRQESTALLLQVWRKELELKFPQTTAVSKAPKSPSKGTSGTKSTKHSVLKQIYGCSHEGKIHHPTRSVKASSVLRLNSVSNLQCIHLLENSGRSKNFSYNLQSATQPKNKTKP
B3: Endothelial transcription factor GATA-2 (Homo sapiens), P23769 (parent)
chain: MEVAPEQPRWMAHPAVLNAQHPDSHHPGLAHNYMEPAQLLPPDEVDVFFNHLDSQGNPYYANPAHARARVSYSPAHARLTGGQMCRPHLLHSPGLPWLDGGKAALSAAAAHHHNPWTVSPFSKTPLHPSAAGGPGGPLSVYPGAGGGSGGGSGSSVASLTPTAAHSGSHLFGFPPTPPKEVSPDPSTTGAASPASSSAGGSAARGEDKDGVKYQVSLTESMKMESGSPLRPGLATMGTQPATHHPIPTYPSYVPAAAHDYSSGLFHPGGFLGGPASSFTPKQRSKARSCSEGRECVNCGATATPLWRRDGTGHYLCNACGLYHKMNGQNRPLIKPKRRLSAARRAGTCCANCQTTTTTLWRRNANGDPVCNACGLYYKLHNVNRPLTMKKEGIQTRNRKMSNKSKKSKKGAECFEELSKCMQEKSSPFSAAALAGHMAPVGHLPPFSHSGHILPTPTPIHPSSSLSFGHPHPSSMVTAMG
partner: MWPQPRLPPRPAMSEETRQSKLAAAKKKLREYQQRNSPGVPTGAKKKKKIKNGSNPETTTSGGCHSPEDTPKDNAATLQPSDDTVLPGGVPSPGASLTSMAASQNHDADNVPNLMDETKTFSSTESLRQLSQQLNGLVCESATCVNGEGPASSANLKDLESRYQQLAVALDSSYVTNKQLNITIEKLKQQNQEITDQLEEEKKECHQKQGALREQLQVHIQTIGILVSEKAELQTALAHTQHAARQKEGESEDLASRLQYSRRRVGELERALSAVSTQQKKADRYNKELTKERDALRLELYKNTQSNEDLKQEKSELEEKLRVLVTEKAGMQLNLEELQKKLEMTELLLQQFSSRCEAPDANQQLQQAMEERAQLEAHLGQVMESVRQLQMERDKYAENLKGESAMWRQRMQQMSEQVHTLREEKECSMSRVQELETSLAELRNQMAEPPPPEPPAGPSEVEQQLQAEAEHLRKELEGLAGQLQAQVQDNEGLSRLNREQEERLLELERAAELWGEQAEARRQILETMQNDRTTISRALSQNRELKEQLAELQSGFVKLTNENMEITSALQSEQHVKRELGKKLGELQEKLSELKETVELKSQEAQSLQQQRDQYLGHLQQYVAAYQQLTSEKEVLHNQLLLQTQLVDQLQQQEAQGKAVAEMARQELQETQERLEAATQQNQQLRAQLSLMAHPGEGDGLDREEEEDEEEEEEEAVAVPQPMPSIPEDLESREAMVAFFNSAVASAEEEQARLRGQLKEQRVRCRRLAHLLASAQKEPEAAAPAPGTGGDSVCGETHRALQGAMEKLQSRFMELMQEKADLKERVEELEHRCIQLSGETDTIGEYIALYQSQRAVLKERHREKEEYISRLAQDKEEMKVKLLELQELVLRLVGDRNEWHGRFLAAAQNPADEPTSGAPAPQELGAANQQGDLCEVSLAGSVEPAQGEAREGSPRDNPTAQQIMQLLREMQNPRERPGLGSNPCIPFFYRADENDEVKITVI
B4: Outer dense fiber protein 1 (Homo sapiens), Q14990 (parent)
chain: MAALSCLLDSVRRDIKKVDRELRQLRCIDEFSTRCLCDLYMHPYCCCDLHPYPYCLCYSKRSRSCGLCDLYPCCLCDYKLYCLRPSLRSLERKAIRAIEDEKRELAKLRRTTNRILASSCCSSNILGSVNVCGFEPDQVKVRVKDGKVCVSAERENRYDCLGSKKYSYMNICKEFSLPPCVDEKDVTYSYGLGSCVKIESPCYPCTSPCSPCSPCSPCNPCSPCNPCSPYDPCNPCYPCGSRFSCRKMIL
B5: Ligand of Numb protein X 2 (Homo sapiens), Q8N448 (parent)
chain: MGTTSDEMVSVEQTSSSSLNPLCFECGQQHWTRENHLYNYQNEVDDDLVCHICLQPLLQPLDTPCGHTFCYKCLRNFLQEKDFCPLDRKRLHFKLCKKSSILVHKLLDKLLVLCPFSSVCKDVMQRCDLEAHLKNRCPGASHRRVALERRKTSRTQAEIENENGPTLLDPAGTLSPEADCLGTGAVPVERHLTSASLSTWSEEPGLDNPAFEESAGADTTQQPLSLPEGEITTIEIHRSNPYIQLGISIVGGNETPLINIVIQEVYRDGVIARDGRLLAGDQILQVNNYNISNVSHNYARAVLSQPCNTLHLTVLRERRFGNRAHNHSDSNSPREEIFQVALHKRDSGEQLGIKLVRRTDEPGVFILDLLEGGLAAQDGRLSSNDRVLAINGHDLKYGTPELAAQIIQASGERVNLTIARPGKPQPGNTIREAGNHSSSSQHHTPPPYYSRPSSHKDLTQCVTCQEKHITVKKEPHESLGMTVAGGRGSKSGELPIFVTSVPPHGCLARDGRIKRGDVLLNINGIDLTNLSHSEAVAMLKASAASPAVALKALEVQIVEEATQNAEEQPSTFSENEYDASWSPSWVMWLGLPSTLHSCHDIVLRRSYLGSWGFSIVGGYEENHTNQPFFIKTIVLGTPAYYDGRLKCGDMIVAVNGLSTVGMSHSALVPMLKEQRNKVTLTVICWPGSLV
partner: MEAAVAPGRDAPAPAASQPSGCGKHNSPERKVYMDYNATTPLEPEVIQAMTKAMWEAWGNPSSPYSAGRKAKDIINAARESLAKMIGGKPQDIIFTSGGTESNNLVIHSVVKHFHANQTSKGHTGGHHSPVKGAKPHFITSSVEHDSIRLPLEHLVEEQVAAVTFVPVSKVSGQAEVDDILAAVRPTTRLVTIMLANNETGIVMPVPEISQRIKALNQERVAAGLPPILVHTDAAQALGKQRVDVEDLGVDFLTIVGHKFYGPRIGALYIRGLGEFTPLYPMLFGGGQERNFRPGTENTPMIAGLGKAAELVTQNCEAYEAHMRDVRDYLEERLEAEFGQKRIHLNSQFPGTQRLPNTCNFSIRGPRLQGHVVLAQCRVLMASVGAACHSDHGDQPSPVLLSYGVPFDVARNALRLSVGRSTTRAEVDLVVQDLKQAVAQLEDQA
B6: Cyclin-dependent kinase 4 (Homo sapiens), P11802 (parent)
chain: MATSRYEPVAEIGVGAYGTVYKARDPHSGHFVALKSVRVPNGGGGGGGLPISTVREVALLRRLEAFEHPNVVRLMDVCATSRTDREIKVTLVFEHVDQDLRTYLDKAPPPGLPAETIKDLMRQFLRGLDFLHANCIVHRDLKPENILVTSGGTVKLADFGLARIYSYQMALTPVVVTLWYRAPEVLLQSTYATPVDMWSVGCIFAEMFRRKPLFCGNSEADQLGKIFDLIGLPPEDDWPRDVSLPRGAFPPRGPRPVQSVVPEMEESGAQLLLEMLTFNPHKRISAFRALQHSYLHKDEGNPE
partner: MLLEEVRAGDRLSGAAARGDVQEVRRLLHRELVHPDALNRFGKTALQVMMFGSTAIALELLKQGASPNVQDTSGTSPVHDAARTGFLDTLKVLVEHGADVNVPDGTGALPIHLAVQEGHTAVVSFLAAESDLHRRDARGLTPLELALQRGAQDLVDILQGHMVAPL
B7: mRNA-decapping enzyme 1A (Homo sapiens), Q9NPI6 (parent)
chain: MEALSRAGQEMSLAALKQHDPYITSIADLTGQVALYTFCPKANQWEKTDIEGTLFVYRRSASPYHGFTIVNRLNMHNLVEPVNKDLEFQLHEPFLLYRNASLSIYSIWFYDKNDCHRIAKLMADVVEEETRRSQQAARDKQSPSQANGCSDHRPIDILEMLSRAKDEYERNQMGDSNISSPGLQPSTQLSNLGSTETLEEMPSGSQDKSAPSGHKHLTVEELFGTSLPKEQPAVVGLDSEEMERLPGDASQKEPNSFLPFPFEQLGGAPQSETLGVPSAAHHSVQPEITTPVLITPASITQSNEKHAPTYTIPLSPVLSPTLPAEAPTAQVPPSLPRNSTMMQAVKTTPRQRSPLLNQPVPELSHASLIANQSPFRAPLNVTNTAGTSLPSVDLLQKLRLTPQHDQIQTQPLGKGAMVASFSPAAGQLATPESFIEPPSKTAAARVAASASLSNMVLAPLQSMQQNQDPEVFVQPKVLSSAIPVAGAPLVTATTTAVSSVLLAPSVFQQTVTRSSDLERKASSPSPLTIGTPESQRKPSIILSKSQLQDTLIHLIKNDSSFLSTLHEVYLQVLTKNKDNHNL

The first assay covers variants of B1. The settings on record: with fnd11_human FNDC11, Q9BVV2.
For the variant S449R, the “effect of a mutation on the interaction” value is “with no effect”.

Regarding T223A, the “effect of a mutation on the interaction” value is on record as “with no effect”.

In the next assay the parent is B2. The settings on record: with invs_human INVS.
Take P41A: the “effect of a mutation on the interaction” value is on record as “with no effect”.

The next assay covers variants of B3. The settings on record: with goga2_human GOLGA2, Q08379.
For A164T, the “effect of a mutation on the interaction” value is given as “with no effect”.

A further assay covers variants of B4. As to conditions: with mtus2_human MTUS2, Q5JR59.
Sequence of mtus2_human MTUS2, Q5JR59 (Q5JR59 whole entry): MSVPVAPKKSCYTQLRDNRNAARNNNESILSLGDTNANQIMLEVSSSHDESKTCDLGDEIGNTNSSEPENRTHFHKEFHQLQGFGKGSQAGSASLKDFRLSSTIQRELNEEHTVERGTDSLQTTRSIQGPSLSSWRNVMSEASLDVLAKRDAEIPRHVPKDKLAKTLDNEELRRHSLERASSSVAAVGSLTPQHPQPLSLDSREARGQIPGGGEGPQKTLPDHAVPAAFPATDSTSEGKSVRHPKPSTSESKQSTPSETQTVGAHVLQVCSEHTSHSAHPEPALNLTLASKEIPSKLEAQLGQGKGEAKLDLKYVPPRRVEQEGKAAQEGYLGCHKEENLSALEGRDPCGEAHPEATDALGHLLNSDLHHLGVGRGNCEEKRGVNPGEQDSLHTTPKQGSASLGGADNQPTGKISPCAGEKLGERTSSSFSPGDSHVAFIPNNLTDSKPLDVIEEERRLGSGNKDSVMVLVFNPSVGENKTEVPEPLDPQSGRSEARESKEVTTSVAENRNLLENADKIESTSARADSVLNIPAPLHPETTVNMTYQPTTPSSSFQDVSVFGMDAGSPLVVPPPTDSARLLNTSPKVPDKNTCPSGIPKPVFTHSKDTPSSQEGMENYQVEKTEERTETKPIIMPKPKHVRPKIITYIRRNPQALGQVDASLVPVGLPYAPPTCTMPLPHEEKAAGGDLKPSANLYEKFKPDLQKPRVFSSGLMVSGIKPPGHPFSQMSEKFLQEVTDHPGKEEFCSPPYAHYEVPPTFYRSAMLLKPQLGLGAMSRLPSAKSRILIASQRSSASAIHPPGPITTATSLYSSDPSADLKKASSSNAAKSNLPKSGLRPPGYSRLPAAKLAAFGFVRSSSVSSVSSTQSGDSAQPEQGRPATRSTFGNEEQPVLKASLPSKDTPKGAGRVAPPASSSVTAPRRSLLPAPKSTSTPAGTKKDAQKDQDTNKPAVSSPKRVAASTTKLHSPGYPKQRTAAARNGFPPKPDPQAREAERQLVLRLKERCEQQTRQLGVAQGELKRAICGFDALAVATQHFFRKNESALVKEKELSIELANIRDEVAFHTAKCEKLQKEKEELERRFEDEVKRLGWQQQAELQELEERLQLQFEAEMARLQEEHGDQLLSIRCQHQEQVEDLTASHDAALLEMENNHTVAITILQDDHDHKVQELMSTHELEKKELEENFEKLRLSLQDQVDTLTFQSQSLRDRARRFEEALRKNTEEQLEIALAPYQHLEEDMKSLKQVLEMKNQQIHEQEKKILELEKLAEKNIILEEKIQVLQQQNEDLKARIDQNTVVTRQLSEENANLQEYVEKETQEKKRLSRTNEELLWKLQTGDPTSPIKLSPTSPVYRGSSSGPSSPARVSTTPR
As for S89I, the “effect of a mutation on the interaction” value is given as “with no effect”. K17N: the “effect of a mutation on the interaction” value is listed as “with no effect”.

Variants of B5 are the subject of a further assay. As to conditions: with scly_human SCLY.
Turning to S198P, the “effect of a mutation on the interaction” value is “with no effect”.

Another assay covers variants of B6. The settings on record: with cdn2d_human CDKN2D.
Take S52N: the “effect of a mutation on the interaction” value was “with no effect”.

The variants in a further assay derive from B7. As to conditions: with pnrc2_human PNRC2, Q9NPJ4.
Sequence of pnrc2_human PNRC2, Q9NPJ4 (Q9NPJ4 whole entry): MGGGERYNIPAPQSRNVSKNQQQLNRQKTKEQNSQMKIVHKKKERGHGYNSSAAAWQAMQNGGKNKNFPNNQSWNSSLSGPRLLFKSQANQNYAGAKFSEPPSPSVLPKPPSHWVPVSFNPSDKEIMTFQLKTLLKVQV
As for Q474H, the “effect of a mutation on the interaction” value is “with no effect”. The same measure, in the same setting: then A297G, with “with no effect”; and P332T, with “with no effect”.
